Assay results taken from paper PMC5785501, “Crystal structure of lipid A disaccharide synthase LpxB from Escherichia coli” (Nature Communications, 2018).
Changes are numbered by the printed parent chain. In names and notes the source's numbering stands.

B1: LpxB7S (LpxB6S with M207S) (enzyme, Escherichia coli, UniProt P10441 1-382, looked up)
chain: MTEQRPLTIALVAGETSGDILGAGLIRALKEHVPNARFVGVAGPRMQAEGCEAWYEMEELAVMGISESSGRSRRSSHIRADLTKRFGELKPDVFVGIDAPDFNITLEGNLKKQGIKTIHYVSPSVWAWRQKRVFKIGRATDLVLAFLPFEKAFYDKYNVPCRFIGHTMADAMPLDPDKNAARDVLGIPHDAHCLALLPGSRGAEVESLSADFLKTAQLLRQTYPDLEIVVPLVNAKRREQFERIKAEVAPDLSVHLLDGMGREAMVASDAALLASGTAALECMLAKCPMVVGYRMKPFTFWLAKRLVKTDYVSLPNLLAGRELVKELLQEECEPQKLAAALLPLLANGKTSHAMHDTFRELHQQIRCNADEQAAQAVLELAQ
notes: lipid A disaccharide synthase LpxB, Escherichia coli; Native LpxB7S, apo and soaked with UDP-GlcNAc (UDP seen); also called LpxB6SM207S; source: E. coli BL21 (DE3), purified (Ni-NTA, Ulp1 cleavage, Superdex 200); not shown: His tag, N-terminal, cleaved; SUMO, N-terminal, cleaved
B2: LpxB6S (E. coli lipid A disaccharide synthase LpxB with V66S, V68S, L69S, L72S, L75S, L76S) (enzyme, Escherichia coli, UniProt P10441 1-382, looked up)
chain: B1 chain with S207M
notes: lipid A disaccharide synthase LpxB, Escherichia coli; residues up to 382 named in the structure; the gene was cloned from strain BL21; also called soluble LpxB; solubilized LpxB; source: E. coli BL21 (DE3), purified (Ni-NTA, Ulp1 cleavage, Superdex 200); not shown: His tag, N-terminal, cleaved; SUMO, N-terminal, cleaved

Columns and labels:
[1] = biological target: the molecule itself; experiment: crystal structure; X-ray, one molecule in the asymmetric unit, dimer by crystal symmetry; LiCl, PEG 4000, 0.1 M Tris-HCl pH 8.6; apo and soaked with 10 mM UDP-GlcNAc
[2] = biological target: the molecule itself; experiment: AUC; LpxB6S at 1 mg/ml, 5,000-16,000 r.p.m. for 10 h each, absorbance at 280 nm; mass modelled

| Protein | binding result [1] | stoichiometry N [2] |
| --- | --- | --- |
| B1 | binds |  |
| B2 |  | 2 |
